Assay results from patent US20120321607A1.

Columns and labels:
[1] = tested on: T1, Factor VII (wild-type, single-chain zymogen)
T1 sequence: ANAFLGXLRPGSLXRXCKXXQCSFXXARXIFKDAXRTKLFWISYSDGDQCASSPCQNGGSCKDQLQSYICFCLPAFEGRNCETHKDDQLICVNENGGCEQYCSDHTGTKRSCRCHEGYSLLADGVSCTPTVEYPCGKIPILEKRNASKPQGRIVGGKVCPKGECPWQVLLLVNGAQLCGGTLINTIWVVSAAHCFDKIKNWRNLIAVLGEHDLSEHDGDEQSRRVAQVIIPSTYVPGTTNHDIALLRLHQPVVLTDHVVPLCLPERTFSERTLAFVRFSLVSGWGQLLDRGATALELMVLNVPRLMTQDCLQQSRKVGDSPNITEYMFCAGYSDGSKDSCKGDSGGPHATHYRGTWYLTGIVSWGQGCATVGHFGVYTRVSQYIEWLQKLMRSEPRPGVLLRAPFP

[2] = target: FVII_XHC: FVII with FX activation peptide inserted in the end of FVII heavy chain; experiment: cell-based or functional assay

Factor IXa
activation of FVII (cleavage to two chains) on reducing SDS-PAGE; 250 nM FIXa for 20 h [1]: completely activated under all described conditions

Factor IXa (from UniProt P00740 47-461) (enzyme)
time to complete activation, reducing SDS-PAGE, 80 nM FIXa [2]: 4 h

Factor XIa
activation of FVII (cleavage to two chains) on reducing SDS-PAGE; 75 nM FXIa for 2.5 h [1]: completely activated under all described conditions

Factor Xa
activation of FVII (cleavage to two chains) on reducing SDS-PAGE; 100 nM FXa for 2 h [1]: completely activated under all described conditions
